According to patent US20060073149A1 (published 2006):

Biological target: T1, Soluble Aβ 1-40 (UniProt P05067 672-711)
T1 construct: domain: Aβ 1-40
Experiment: SPR (BIAcore), alternate method: antibody captured on protein A or A/G, Aβ 1-40 in flow, 5 h dissociation, 1:1 model with mass transfer; alternate method: antibody captured on protein A or A/G, 5 h dissociation
Protocol: Protein A or protein A/G is immobilized via amine coupling to flow cells 1 and 2 of a B1 or CM5 sensor chip (BIAcore). The test antibody is then captured in flow cell 2 at desired levels (usually a 10-60 second injection of antibody) and 5 minutes is allowed for the antibody to stabilize. […] Each concentration is injected over the surface for 5 minutes at a flow rate of 50 μL/min. […] Aβ 1-40 and antibody are then eluted from both flow cells with a 40 second injection of glycine (pH 1.5). The signal is allowed to stabilize for 2 minutes before the next cycle. The data from flow cell 1 is subtracted from flow cell 2 to account for any bulk shifts due to buffer differences or non-specific binding to the sensor chip or protein A. The various concentrations are injected randomly and each concentration is run in duplicate. Two 0 nM runs are used to control for any dissociation of antibody from the protein A or A/G capture surface. The data is analyzed using the Biaevalution software. A 1:1 model with mass transfer and a local Rmax is used as the best fit for the data.

Kd: 0.4 nM
B1: humanized 266 antibody (antibody, human IgG1, kappa, V domains shown)
VH: EVQLVESGGGLVQPGGSLRLSCAASGFTFSRYSMSWVRQAPGKGLELVAQINSVGNSTYYPDTVKGRFTISRDNAKNTLYLQMNSLRAEDTAVYYCASGDYWGQGTLVTVSS
VL: DVVMTQSPLSLPVTLGQPASISCRSSQSLIYSDGNAYLHWFLQKPGQSPRLLIYKVSNRFSGVPDRFSGSGSGTDFTLKISRVEAEDVGVYYCSQSTHVPWTFGQGTKVEIKR
